Consider 22 molecules from patent US20220031857A1 (OSSIANIX, published 2022).

Holding throughout (assay): phage ELISA
In general terms: ELISA stands for enzyme-linked immunosorbent assay.

Experiment [1] has as its target T1, recombinant human TfR1 (transferrin receptor 1) (human, UniProt P02786 89-760).
T1 construct: Bought recombinant His-tagged protein; also called hTfR1

The target in experiment [2] is T2, recombinant mouse TfR1 (transferrin receptor 1) (mouse, UniProt Q62351 89-763).
T2 construct: Bought recombinant His-tagged protein; also called mTfR1

For a further experiment, the target named is T3, human serum albumin (human, UniProt P02768 25-609).
T3 construct: Negative control protein; also called HSA

Another experiment has as its target T4, recombinant mouse TfR2 (mouse, UniProt Q9JKX3 103-798, limits assumed).
T4 construct: Negative control protein
T4 sequence (looked up): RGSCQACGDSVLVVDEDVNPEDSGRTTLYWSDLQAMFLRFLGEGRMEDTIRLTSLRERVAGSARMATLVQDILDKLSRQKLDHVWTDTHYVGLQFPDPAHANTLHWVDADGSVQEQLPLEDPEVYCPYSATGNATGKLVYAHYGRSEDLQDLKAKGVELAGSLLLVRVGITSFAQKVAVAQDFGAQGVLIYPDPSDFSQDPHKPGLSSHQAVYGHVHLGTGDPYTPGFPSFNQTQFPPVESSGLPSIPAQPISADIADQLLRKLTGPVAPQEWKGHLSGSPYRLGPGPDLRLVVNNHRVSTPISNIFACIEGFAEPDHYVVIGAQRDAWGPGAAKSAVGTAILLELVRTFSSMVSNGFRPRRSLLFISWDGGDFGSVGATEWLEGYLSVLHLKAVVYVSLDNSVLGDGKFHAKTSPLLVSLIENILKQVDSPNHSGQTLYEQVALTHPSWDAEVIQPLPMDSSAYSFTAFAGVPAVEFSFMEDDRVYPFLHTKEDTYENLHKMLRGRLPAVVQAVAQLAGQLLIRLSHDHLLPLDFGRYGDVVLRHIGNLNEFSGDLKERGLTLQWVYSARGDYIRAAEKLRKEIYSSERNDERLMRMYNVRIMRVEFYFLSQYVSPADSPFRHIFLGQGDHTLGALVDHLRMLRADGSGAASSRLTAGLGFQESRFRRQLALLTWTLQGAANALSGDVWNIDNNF

T2 sequence (Q62351 89-763 limits assumed): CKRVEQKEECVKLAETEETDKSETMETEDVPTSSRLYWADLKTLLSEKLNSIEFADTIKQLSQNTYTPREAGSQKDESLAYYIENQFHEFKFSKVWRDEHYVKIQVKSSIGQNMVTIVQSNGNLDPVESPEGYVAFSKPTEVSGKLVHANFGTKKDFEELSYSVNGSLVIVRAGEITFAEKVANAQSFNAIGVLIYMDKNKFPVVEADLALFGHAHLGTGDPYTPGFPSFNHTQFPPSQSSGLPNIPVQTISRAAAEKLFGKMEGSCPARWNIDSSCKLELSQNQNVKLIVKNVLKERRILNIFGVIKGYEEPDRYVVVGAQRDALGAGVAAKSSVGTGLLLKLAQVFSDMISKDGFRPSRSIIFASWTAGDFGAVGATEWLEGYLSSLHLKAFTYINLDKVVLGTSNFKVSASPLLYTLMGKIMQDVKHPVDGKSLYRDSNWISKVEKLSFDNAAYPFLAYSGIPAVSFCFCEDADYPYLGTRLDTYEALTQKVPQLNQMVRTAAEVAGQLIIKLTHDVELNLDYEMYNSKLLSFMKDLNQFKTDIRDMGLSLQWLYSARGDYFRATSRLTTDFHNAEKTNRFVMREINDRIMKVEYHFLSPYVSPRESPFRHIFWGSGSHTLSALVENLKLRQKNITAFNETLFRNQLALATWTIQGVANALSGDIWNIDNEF
T1 sequence (P02786 89-760 limits assumed): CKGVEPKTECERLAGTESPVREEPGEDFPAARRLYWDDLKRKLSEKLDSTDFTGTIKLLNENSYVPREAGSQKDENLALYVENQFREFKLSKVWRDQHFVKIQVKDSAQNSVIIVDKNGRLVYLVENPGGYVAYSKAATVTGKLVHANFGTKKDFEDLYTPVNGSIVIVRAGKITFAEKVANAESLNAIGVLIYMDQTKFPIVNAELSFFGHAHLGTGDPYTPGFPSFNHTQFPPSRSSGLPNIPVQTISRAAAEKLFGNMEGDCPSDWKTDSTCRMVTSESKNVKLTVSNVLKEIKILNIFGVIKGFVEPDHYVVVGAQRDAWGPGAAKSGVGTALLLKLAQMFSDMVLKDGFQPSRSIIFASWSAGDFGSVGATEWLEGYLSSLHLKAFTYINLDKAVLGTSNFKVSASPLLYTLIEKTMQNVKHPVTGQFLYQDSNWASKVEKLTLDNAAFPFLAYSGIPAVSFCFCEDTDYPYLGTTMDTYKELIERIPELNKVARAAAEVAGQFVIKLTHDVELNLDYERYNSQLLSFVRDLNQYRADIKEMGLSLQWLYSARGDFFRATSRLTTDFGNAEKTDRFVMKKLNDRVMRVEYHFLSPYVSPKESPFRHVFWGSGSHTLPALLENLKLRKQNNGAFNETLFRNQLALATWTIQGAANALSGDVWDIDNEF
T3 sequence (P02768 25-609 limits assumed): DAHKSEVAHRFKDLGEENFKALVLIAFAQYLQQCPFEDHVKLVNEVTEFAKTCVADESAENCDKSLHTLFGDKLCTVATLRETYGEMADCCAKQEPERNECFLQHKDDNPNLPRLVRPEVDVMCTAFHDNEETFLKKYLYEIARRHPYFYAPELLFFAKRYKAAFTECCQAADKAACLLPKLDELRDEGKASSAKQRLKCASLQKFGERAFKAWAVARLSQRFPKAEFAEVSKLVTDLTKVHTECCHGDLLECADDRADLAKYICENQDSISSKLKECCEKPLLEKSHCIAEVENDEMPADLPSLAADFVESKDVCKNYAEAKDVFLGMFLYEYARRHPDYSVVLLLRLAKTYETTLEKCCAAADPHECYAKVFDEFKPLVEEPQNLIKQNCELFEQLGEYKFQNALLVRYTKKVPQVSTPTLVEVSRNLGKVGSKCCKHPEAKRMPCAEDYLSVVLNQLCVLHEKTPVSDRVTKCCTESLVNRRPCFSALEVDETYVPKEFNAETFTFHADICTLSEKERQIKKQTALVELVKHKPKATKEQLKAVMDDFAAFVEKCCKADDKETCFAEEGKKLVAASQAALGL

B1: SEQ ID NO 5 (VNAR clone displayed on phage) (VNAR)
VNAR: ARVDQTPQTITKETGESLTINCVLRDSNCALSSTYWYRKKSGSTNEENISKGGRYVETVNSGSKSFSLKINDLTVEDSGTYRCNVQKGQHLQCHVAVQDVYGGGTAVTVNA
notes: shark VNAR domain on M13 phage; coat-protein fusion not described
On to B1, for which the binding result in experiment [1] is given as “binds”; in experiment [2], “binds”; with human serum albumin, “no binding”.

B2: SEQ ID NO 9 (VNAR clone displayed on phage) (VNAR)
chain: ARVDQTPQTITKETGESLTINCVLRDSNCALPSTYWYRKKSGSTNEARISKGGRYVETVNSGSKSFSLRINDLTVEDSGTIDARYRLSASAVLYQSYVDVYGGGTAVTVNA
notes: as for B1
B2: the results for the binding result (in experiment [1]; in experiment [2]; with human serum albumin) were “binds”, “binds” and “no binding”, respectively.

B3: SEQ ID NO 3 (VNAR clone displayed on phage) (VNAR)
VNAR: ARVDQTPQTITKETGESLTINCVLRDNNCALSTTYWYRKKSGSTNEENISKGGRYVETVNSGSKSFSLKINDLTVEDSGTYRCNVTGYFRSTCLWRDVYGGGTAVTVNA
notes: as for B1
Regarding B3, the values for the binding result (in experiment [1]; in experiment [2]; with human serum albumin) were “binds”, “binds” and “no binding”, respectively.

B4: SEQ ID NO 11 (VNAR clone displayed on phage) (VNAR)
VNAR: ARVDQTPQTITKETGESLTINCVLRDSNCALPSTHWYRKKSGSTNEESISKGGRYVETVNSGSKSFSLRINDLTVEDSGTYRCKVLNFFTHTCVQVQKYDVYGGGTAVTVNA
notes: shark VNAR domain on M13 phage; coat-protein fusion not described; also called clone 11
As for B4, the binding result is listed as “binds” in experiment [1], “no binding” with recombinant mouse TfR2 and “no binding” with human serum albumin.

B5: SEQ ID NO 6 (VNAR clone displayed on phage) (VNAR)
VNAR: ARVDQTPQTITKETGESLTINCVLRDSNCALSSTYWYRKKSDSTNEESISKGGRYVETVNSGSKSFSLRINDLTVEDSGTYRCNVQWWLRCGYFKDVYGGGTVVTVNA
notes: as for B1
Regarding B5, the binding result is “binds” in experiment [1], “binds” in experiment [2] and “no binding” with human serum albumin.

B6: SEQ ID NO 43 (VNAR clone displayed on phage) (VNAR)
VNAR: ARVDQTPRSVTKETGESLTINCVLRDASYALGSTCWYRKKSGSTNEESISKGGRYVETVNSGSKSFSLRINDLTVEDGGTYRCGVYGGTHQGLCGCDWQLRFSLCGDGRAACGDGTAVTVNA
notes: as for B1
For B6, the binding result was “binds” in experiment [1], “binds” in experiment [2], “no binding” with recombinant mouse TfR2 and “no binding” with human serum albumin.

B7: SEQ ID NO 46 (VNAR clone displayed on phage) (VNAR)
VNAR: ARVDQTPRSVTKETGESLTINCVLRDASYALGSTCWYRKKSGSTNEESISKGGRYVETVNSGSKSFSLRINDLTVEDGGTYRCGVCSDYGLQTTGQQAACGDGTAVTVNA
notes: as for B1
Take B7: the binding result with recombinant mouse TfR2 and in the experiment with human serum albumin was “no binding” throughout.

B8: SEQ ID NO 2 (VNAR clone displayed on phage) (VNAR)
VNAR: ARVDQTPQTITKETGESLTINCVLRDNNCALSTTYWYRKKSGSTNEENISKGGRYVETVNSGSKSFSLKINDLTVEDSGTYRCNVFGVDNGWWCDVYGGGTVVTVNA
notes: shark VNAR domain on M13 phage; coat-protein fusion not described; also called clone 2
Consider B8, for which the binding result with recombinant mouse TfR2 and in the experiment with human serum albumin was “no binding” throughout.

B9: SEQ ID NO 47 (VNAR clone displayed on phage) (VNAR)
VNAR: ARVDQTPRSVTKETGESLTINCVLRDASYALGSTCWYRKKSGSTNEESISKGGRYVETVNSGSKSFSLRINDLTVEDGGTYRCGAAIQGFWAGRCDNLPGKCVMQVSNAAACGDGTAVTVNA
notes: as for B1
B9: the binding result in experiment [1] is “binds”; in experiment [2], “binds”; with recombinant mouse TfR2, “no binding”; with human serum albumin it was “no binding”.

B10: SEQ ID NO 48 (VNAR clone displayed on phage) (VNAR)
VNAR: ARVDQTPRSVTKETGESLTINCVLRDASYELGSTCWYRKKSGSTNEESISKGGRYVETVNSGSKSFSLRINDLTVEDGGTYRCGASLQCGNCELCDREQLQCGGQRGQLAACGDGTAVTVNA
notes: as for B1
Regarding B10, the binding result in experiment [1] is “binds”; in experiment [2], “binds”; in the experiment with recombinant mouse TfR2, “no binding”; in the experiment with human serum albumin it was “no binding”.

B11: SEQ ID NO 40 (VNAR clone displayed on phage) (VNAR)
VNAR: ARVDQTPQTITKETGESLTINCVLRDSNCALSSTLWYRTKSGSRNEESISKGGRYVETVNSGSKSFSLRINDLTVEDSGTYRCNVQFSYNCNFWKDVYGGGTDVTVNA
notes: as for B1
On to B11, for which the binding result is reported as “binds” in experiment [1], “binds” in experiment [2] and “no binding” with recombinant mouse TfR2.

B12: SEQ ID NO 1 (VNAR clone displayed on phage) (VNAR)
VNAR: ARVDQTPQTITKETGESLTINCVLRDNNCALSTTYWYRKKSGSTNEENISKGGRYVETVNSGSKSFSLKINDLTVEDSGTYRCNVRDVQACGNDWVWLDVYGGGTVVTVNA
notes: shark VNAR domain on M13 phage; coat-protein fusion not described; also called clone 1
With B12, the binding result with recombinant mouse TfR2 and with human serum albumin was “no binding” throughout.

B13: SEQ ID NO 45 (VNAR clone displayed on phage) (VNAR)
VNAR: ARVDQTPRSVTKETGESLTINCVLRDASYALGSTCWYRKKSGSTNEESISKGGRYVETVNSGSKSFSLRINDLTVEDGGTYRCGVCESSFCSLPYDCDSSSAGSVIQPFGHIVSLAACGDGTAVTVNA
notes: as for B1
In the case of B13, the binding result is “binds” in experiment [1], “binds” in experiment [2], “no binding” in the experiment with recombinant mouse TfR2 and “no binding” with human serum albumin.

B14: SEQ ID NO 10 (VNAR clone displayed on phage) (VNAR)
VNAR: ARVDQTPQTITKETGESLTINCVLRDSNCALSSTYWYRKKSGSTNEENISKGGRYVETVNSGSKSFSLRINDLTVEDSGTYRCNVVQYPSYNNYFWCDVYGDGTAVTVNA
notes: shark VNAR domain on M13 phage; coat-protein fusion not described; also called clone 10
In the case of B14, the binding result in the experiment with recombinant mouse TfR2 and with human serum albumin was “no binding” each time.

B15: SEQ ID NO 8 (VNAR clone displayed on phage) (VNAR)
VNAR: ARVDQTPQTITKETGESLTINCVLRDSNCELSSTYWYRKKSGSTNEARISKGGRYVETVNSGSKSFSLRINDLTVEDSGTYRCNVQYFLCHFVGDVYGDGTAVTVNA
notes: as for B1
For B15, the binding result is “binds” in experiment [1], “binds” in experiment [2] and “no binding” with human serum albumin.

B16: SEQ ID NO 7 (VNAR clone displayed on phage) (VNAR)
VNAR: ARVDQTPQTITKETGESLTINCVLRDSNCELSSTYWYRKKSGSTNEARISKGGRYVETVNSGSKSFSLKINDLTVEDSGTYRCNVLTTDSYDLGDVYGDGTVVTVNA
notes: shark VNAR domain on M13 phage; coat-protein fusion not described; also called clone 7
Turning to B16, the binding result in the experiment with recombinant mouse TfR2 and with human serum albumin was “no binding” in each case.

B17: SEQ ID NO 44 (VNAR clone displayed on phage) (VNAR)
VNAR: ARVDQTPRSVTKETGESLTINCVLRDASYALGSTCWYRKKSGSTNEESISKGGRYVETVNSGSKSFSLRINDLTVEDGGTYRCGVCQCWSANVWVDCDMTSTSIRMRDGSRSNARAACGDGTAVTVNA
notes: as for B1
As for B17, the binding result is on record as “binds” in experiment [1], “binds” in experiment [2], “no binding” in the experiment with recombinant mouse TfR2 and “no binding” in the experiment with human serum albumin.

B18: SEQ ID NO 42 (VNAR clone displayed on phage) (VNAR)
VNAR: ARVDQTPRSVTKETGESLTINCVLRDASYALGSTCWYRKKSGSTNEESISKGGRYVETVNSGSKSFSLRINDLTVEDGGTYRCGVCEMQLIAVDSCDHTLDDGLCGGVYAACGDGTAVTVNA
notes: as for B1
Regarding B18, the binding result is listed as “binds” in experiment [1], “binds” in experiment [2], “no binding” with recombinant mouse TfR2 and “no binding” in the experiment with human serum albumin.

B19: SEQ ID NO 41 (VNAR clone displayed on phage) (VNAR)
VNAR: ARVDQTPQTITKETGESLTINCVLRDSNCALSSTLWYRTKSGSRNEESISKGGRYVETVNSGSKSFSLKINDLTVEDSGTYRCKVCRQCCVATCDDLSLLCDVYGDGTAVTVNA
notes: as for B1
Regarding B19, the figures for the binding result (in experiment [1]; in experiment [2]; with recombinant mouse TfR2) were “binds”, “binds” and “no binding”, respectively.

B20: SEQ ID NO 12 (VNAR clone displayed on phage) (VNAR)
VNAR: ARVDQTPQTITKETGESLTINCVLRDSICALSSTHWYRKKSGSTNEESISKGGRYVETVNSGSKSFSLRINDLTVEDSGTYRCKVVRSGVGPCWADVYGGGTAVTVNA
notes: shark VNAR domain on M13 phage; coat-protein fusion not described; also called clone 12
Turning to B20, the binding result in the experiment with recombinant mouse TfR2 and with human serum albumin was “no binding” each time.

B21: SEQ ID NO 4 (VNAR clone displayed on phage) (VNAR)
VNAR: ARVDQTPQTITKETGESLTINCVLRDSNCALSSTYWYRKKSGSTNEENISKGGRYVETVNSGSKSFSLKINDLTVEDSGTYRCNVQFTAALWCEAVLDVYGGGTVVTVNA
notes: as for B1
Regarding B21, the binding result is on record as “binds” in experiment [1], “binds” in experiment [2] and “no binding” in the experiment with human serum albumin.

B22: SEQ ID NO 39 (VNAR clone displayed on phage) (VNAR)
chain: ARVDQTPQTITKETGESLTINCVLRDSNCALSSTLWYRTKSGSRNEESISKGGRYVETVNSGSKSFSLKINDLTVEDSGTYRCNVQGMVYDGSSFWWCDVYGDSTAVTVNA
notes: shark VNAR domain on M13 phage; coat-protein fusion not described; also called clone 39
In the case of B22, the binding result with recombinant mouse TfR2 and with human serum albumin was “no binding” throughout.
